Laboratory results as given in patent publication US20060241067A1, “Methods For inhibiting angiogenesis, cell migration, cell adhesion, and cell survival” (priority 2002, published 2006).

System: Human umbilical vein endothelial cells (HUVEC)
Assay: Endothelial cell migration assay (transwell) on ECM substrates
Type: cell-based
Settings: inventors' data, no details given
Protocol: Human umbilical vein endothelial cells (HUVEC) were grown in Endothelial Growth Medium (containing 2% fetal bovine serum, bFGF and VEGF) (Clonetics, San Diego, Calif.). To render HUVECs quiescent for Rac and/or Rho assays, monolayers of endothelial cells were incubated for 18 hrs in Endothelial Basal Medium supplemented with 0.1% serum (Clonetics). Cell migration and adhesion assays on ECM substrates were performed as previously described in Kim et al. (S. Kim et al., Amer. J. Biol. Chem., 275:33920-33928 (2000); and S. Kim et al., Amer. J. Path., 156:1345-1362 (2000)).
Migration assays were performed essentially as described (Kim, et. al., 2000). […] HUVECS (25,000) were added to the upper chamber of inserts in migration buffer (Hepes buffered M199 medium containing 1% BSA, 2 mM MgCl2, 2 mM CaCl2 and 0.2 mM MnCl2) containing 25 μg/ml of various antibodies. In some experiments, 250 μM dibutyryl cAMP was placed in the upper and lower chambers of the transwell. Cells were allowed to migrate from the upper to the lower chamber for four hours at 37° C. The number of cells which had migrated were counted in three representative high power (200×) fields per insert. The data are presented as number of cells migrating+/−standard error of the mean. […] In this case, migrated transfected cells were identified by fluorescent microscopy and counted.

B1: Csk: enzyme that phosphorylates Src on Tyr 527 and inhibits its activity (protein, UniProt P41240 2-450, looked up)
Tyrosine-protein kinase CSK: SAIQAAWPSGTECIAKYNFHGTAEQDLPFCKGDVLTIVAVTKDPNWYKAKNKVGREGIIPANYVQKREGVKAGTKLSLMPWFHGKITREQAERLLYPPETGLFLVRESTNYPGDYTLCVSCDGKVEHYRIMYHASKLSIDEEVYFENLMQLVEHYTSDADGLCTRLIKPKVMEGTVAAQDEFYRSGWALNMKELKLLQTIGKGEFGDVMLGDYRGNKVAVKCIKNDATAQAFLAEASVMTQLRHSNLVQLLGVIVEEKGGLYIVTEYMAKGSLVDYLRSRGRSVLGGDCLLKFSLDVCEAMEYLEGNNFVHRDLAARNVLVSEDNVAKVSDFGLTKEASSTQDTGKLPVKWTAPEALREKKFSTKSDVWSFGILLWEIYSFGRVPYPRIPLKDVVPRVEKGYKMDAPDGCPPAVYEVMKNCWHLDAAMRPSFLQLREQLEHIKTHELHL
cell migration: causes inhibition of cell migration
